Measured values reported in US20160151487A1.
One block for each substance: values may come before it.

Tests used:
[1] = target: human neonatal Fc-receptor (FcRn), soluble extracellular domain with His-Avi Tag, co-expressed with beta-2-microglobulin (human) (UniProt P55899); assay: FcRn affinity chromatography
[2] = target: human neonatal Fc-receptor (FcRn), soluble extracellular domain with His-Avi Tag, co-expressed with beta-2-microglobulin (human) (UniProt P55899); assay: FcRn affinity chromatography, pH gradient

Substance: IgG1 antibody (not identified) with L234A/L235A/P329G and H435A in both Fc-region polypeptides
relative shift of retention time [1]: 0.3 to 0.4 min

Substance: IgG1 antibody (not identified) with L234A/L235A/P329G and I253A in both Fc-region polypeptides
relative shift of retention time [1]: 0.3 to 0.4 min

Substance: bispecific antibody (not identified) assembled using the knobs-into-holes technology, no FcRn affecting mutation
retention time on FcRn affinity column [1]: 51.8 min

Substance: bispecific antibody (not identified, knobs-into-holes), one chain with I253A
retention time on FcRn affinity column [1]: 48.8 min

Substance: bispecific antibody (not identified, knobs-into-holes), one chain with I253A/H310A/H435A
retention time on FcRn affinity column [1]: 46.6 min

Substance: bispecific antibody (not identified, knobs-into-holes), one chain with L251D/L314D/L432D
retention time on FcRn affinity column [1]: 46.3 min

Substance: bispecific antibody (not identified, knobs-into-holes), one chain with M252Y/S254T/T256E
retention time on FcRn affinity column [1]: 56.2 min

The next lines start with the values.

FcRn-affinity column retention time [2]: 41.3 min
Substance: IgG1 antibody (not identified) with L234A/L235A/P329G and Y436A in both Fc-region polypeptides

retention time on FcRn affinity column [1]: 48.4 min
Substance: bispecific antibody (not identified, knobs-into-holes), one chain with H310A

retention time on FcRn affinity column [1]: 46.7 min
Substance: bispecific antibody (not identified, knobs-into-holes), one chain with H310A/H433A/Y436A

retention time on FcRn affinity column [1]: 48.8 min
Substance: bispecific antibody (not identified, knobs-into-holes), one chain with H435A
